The data set has as its system T1, recombinant syndecan-1.
T1 sequence (P18827 whole entry, species assumed, looked up): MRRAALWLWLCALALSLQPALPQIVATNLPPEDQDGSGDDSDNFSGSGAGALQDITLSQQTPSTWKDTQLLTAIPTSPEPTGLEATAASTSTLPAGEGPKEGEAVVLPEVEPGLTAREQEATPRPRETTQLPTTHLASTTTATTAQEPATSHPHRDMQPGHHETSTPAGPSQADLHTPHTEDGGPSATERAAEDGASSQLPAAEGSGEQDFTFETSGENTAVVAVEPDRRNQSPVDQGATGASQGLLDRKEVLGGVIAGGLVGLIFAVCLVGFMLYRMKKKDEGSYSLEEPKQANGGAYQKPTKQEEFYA

B1: recombinant GzmA (enzyme, UniProt P12544 29-262, looked up, species assumed)
Granzyme A: IIGGNEVTPHSRPYMVLLSLDRKTICAGALIAKDWVLTAAHCNLNKRSQVILGAHSITREEPTKQIMLVKKEFPYPCYDPATREGDLKLLQLMEKAKINKYVTILHLPKKGDDVKPGTMCQVAGWGRTHNSASWSDTLREVNITIIDRKVCNDRNHYNFNPVIGMNMVCAGSLRGGRDSCNGDSGSPLLCEGVFRGVTSFGLENKCGDPRGPGVYILLSKKHLNWIIMTIKGAV
With B1, the “in vitro syndecan-1 cleavage assay (coomassie gel); GzmA 500 nM, syndecan-1 0.7 ug” value is “syndecan-1 was cleaved by all three granzymes”.

B2: recombinant GzmK (in vitro syndecan-1 cleavage assay) (enzyme, UniProt P49863 27-264, looked up, species assumed)
Granzyme K: IIGGKEVSPHSRPFMASIQYGGHHVCGGVLIDPQWVLTAAHCQYRFTKGQSPTVVLGAHSLSKNEASKQTLEIKKFIPFSRVTSDPQSNDIMLVKLQTAAKLNKHVKMLHIRSKTSLRSGTKCKVTGWGATDPDSLRPSDTLREVTVTVLSRKLCNSQSYYNGDPFITKDMVCAGDAKGQKDSCKGDSGGPLICKGVFHAIVSGGHECGVATKPGIYTLLTKKYQTWIKSNLVPPHTN
On to B2, for which the “in vitro syndecan-1 cleavage assay (coomassie gel); GzmK 500 nM, syndecan-1 0.7 ug” value is “syndecan-1 was cleaved by all three granzymes”.

The values are drawn from patent publication US20220031820.
